Publication PMC12681905

Tests used:
[1] = molecular target: recombinant human LONP1 protein (human) (UniProt P36776); assay: SPR; Biacore T200, LONP1 covalently coupled to a CM5 chip; SOD2 from 10 to 0.3125 uM in PBS/0.01 % Tween 20, 20 ul/min; association 240 s, dissociation 420 s
[2] = molecular target: recombinant human LONP1 protein (human) (UniProt P36776); assay: MST; Monolith NT.115; 86 nM NHS-labelled LONP1, SOD2 from 2.85 to 22.8 uM, incubated 10 min; 80 % LED power, 80 % MST
[3] = molecular target: recombinant human LONP1 protein (human) (UniProt P36776); assay: BLI; Octet R8, biotinylated LONP1 on streptavidin 2.0 biosensor; SOD2 at 0, 2.5, 5 and 10 uM for 90 s; steady-state fit

- Kd [1]: 0.22 µM
- Kd [2]: 1.56 µM
- Kd [3]: 13.4 µM
Substance: recombinant human SOD2 protein (from UniProt P04179 25-222) (enzyme)
